B1: Lis1^AAA5 (Lis1 M172K, D192K, Y225A, C226D) (natural protein)
chain: VLSQRQRDELNRAIADYLRSNGYEEAYSVFKKEAELDVNEELDKKYAGLLEKKWTSVIRLQKKVMELESKLNEAKEEFTSGGPLGQKRDPKEWIPRPPEKYALSGHRSPVTRVIFHPVFSVMVSASEDATIKVWDYETGDFERTLKGHTDSVQDISFDHSGKLLASCSADKTIKLWDFQGFECIRTMHGHKHNVSSVAIMPNGDHIVSASRDKTIKMWEVQTGADVKTFTGHREWVRMVRPNQDGTLIASCSNDQTVRVWVVATKECKAELREHEHVVECISWAPESSYSSISEATGSETKKSGKPGPFLLSGSRDKTIKMWDVSTGMCLMTLVGHDNWVRGVLFHSGGKFILSCADDKTLRVWDYKNKRCMKTLNAHEHFVTSLDFHKTAPYVVTGSVDQTVKVWECR
B2: Lis1^AAA6 (Lis1 N203K, D205K, Q222A) (natural protein)
chain: VLSQRQRDELNRAIADYLRSNGYEEAYSVFKKEAELDVNEELDKKYAGLLEKKWTSVIRLQKKVMELESKLNEAKEEFTSGGPLGQKRDPKEWIPRPPEKYALSGHRSPVTRVIFHPVFSVMVSASEDATIKVWDYETGDFERTLKGHTDSVQDISFDHSGKLLASCSADMTIKLWDFQGFECIRTMHGHDHNVSSVAIMPKGKHIVSASRDKTIKMWEVATGYCVKTFTGHREWVRMVRPNQDGTLIASCSNDQTVRVWVVATKECKAELREHEHVVECISWAPESSYSSISEATGSETKKSGKPGPFLLSGSRDKTIKMWDVSTGMCLMTLVGHDNWVRGVLFHSGGKFILSCADDKTLRVWDYKNKRCMKTLNAHEHFVTSLDFHKTAPYVVTGSVDQTVKVWECR
B3: Lis1^linker (Lis1 E300K, K303E, S304R, M329A) (natural protein)
chain: VLSQRQRDELNRAIADYLRSNGYEEAYSVFKKEAELDVNEELDKKYAGLLEKKWTSVIRLQKKVMELESKLNEAKEEFTSGGPLGQKRDPKEWIPRPPEKYALSGHRSPVTRVIFHPVFSVMVSASEDATIKVWDYETGDFERTLKGHTDSVQDISFDHSGKLLASCSADMTIKLWDFQGFECIRTMHGHDHNVSSVAIMPNGDHIVSASRDKTIKMWEVQTGYCVKTFTGHREWVRMVRPNQDGTLIASCSNDQTVRVWVVATKECKAELREHEHVVECISWAPESSYSSISEATGSKTKERGKPGPFLLSGSRDKTIKMWDVSTGACLMTLVGHDNWVRGVLFHSGGKFILSCADDKTLRVWDYKNKRCMKTLNAHEHFVTSLDFHKTAPYVVTGSVDQTVKVWECR

Data set [1] addresses full-length human dynein (cytoplasmic dynein-1), wild type (human) (UniProt Q14204). Put plainly: mass photometry.
Data set [2] shares this target. Description: cryo-EM structure.
The data set “mass photometry” deals with the molecule itself. Description: mass photometry.
The target in another data set is T1, human Lis1, wild type (human, UniProt P43034 2-410).
T1 sequence: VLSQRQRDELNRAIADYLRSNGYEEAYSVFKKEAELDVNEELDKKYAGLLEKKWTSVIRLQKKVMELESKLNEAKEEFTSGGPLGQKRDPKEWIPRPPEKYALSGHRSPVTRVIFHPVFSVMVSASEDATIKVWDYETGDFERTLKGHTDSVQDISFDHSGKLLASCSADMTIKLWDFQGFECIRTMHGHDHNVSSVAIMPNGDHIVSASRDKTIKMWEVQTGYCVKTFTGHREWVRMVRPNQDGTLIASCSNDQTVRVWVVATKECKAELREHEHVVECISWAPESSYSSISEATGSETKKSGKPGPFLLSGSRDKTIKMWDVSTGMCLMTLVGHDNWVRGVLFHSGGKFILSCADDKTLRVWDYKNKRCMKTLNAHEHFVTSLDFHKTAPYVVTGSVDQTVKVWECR
Description: mass photometry.

Data set [3] has as its target B3. Put plainly: mass photometry.
The target of data set [4] is B2. Description: mass photometry.
Data set [5] has as its target B1. Description: mass photometry.

In data set [1], “human Lis1, wild type (from UniProt P43034 2-410) (natural protein)” came in with a percent of 1:1 dynein:Lis1 complex of 37%, a percent of complex formation of 69%, a stoichiometry N (Lis1 dimer per dynein) of 1 and a stoichiometry N (Lis1 per dynein) of 1. In data set [2], this molecule yielded a percent of autoinhibited dynein particles in Phi^L-Lis1 of 57.3% and a stoichiometry N (Lis1 dimer per dynein) of 1.

Usually stoichiometry N stands for a count of units in the complex or per binding partner. For the molecule B1, in “mass photometry”, the “stoichiometry N” value amounted to 2.

As to B2, the “stoichiometry N” value in the data set “mass photometry” is 2.

Consider B3, for which the “stoichiometry N” value in the data set “mass photometry” was determined as 2.

B4: human Nde1 (N-terminal residues 1-190) (domain or fragment)
chain: MEDSGKTFSSEEEEANYWKDLAMTYKQRAENTQEELREFQEGSREYEAELETQLQQIETRNRDLLSENNRLRMELETIKEKFEVQHSEGYRQISALEDDLAQTKAIKDQLQKYIRELEQANDDLERAKRATIMSLEDFEQRLNQAIERNAFLESELDEKENLLESVQRLKDEARDLRQELAVQQKQEKPR
Take B4: the binding result with human Lis1, wild type is given as “binds”; in data set [3] it was “binds”; in data set [4], “binds”; in data set [5], “binds”.

Values taken from paper PMC11722290 (bioRxiv, 2025).
